The text below walks through data of patent US20220356237A1 (UNIVERSITY OF MIAMI, published 2022).

Numbering of substitutions follows the chain as printed.

In test [1] the target is T1, human secretogranin III (Scg3) (human, UniProt Q8WXD2 20-468, limits assumed).
T1 construct: also called human Scg3; 1B1075
The test can be described thus: ELISA on immobilised Scg3 and Octet RED96. How it is done:
(§1) Competitive binding to Scg3 was evaluated for Clone 49 and the other anti-Scg3 mAbs described in Table 1. Anti-Scg3 scFv Clone 49 (FIG. 3D) and Clone 78 (FIG. 3E) were expressed and purified. […] Bound scFv was detected by ELISA assay. Binding assays were also performed using an Octet RED96 system (Pall ForteBio), as described in Estep et al., MAbs 2013; 5:270-278.

Test [2] addresses T1, human secretogranin III (Scg3). The test can be described thus: method not given; protein pulldown with protein G beads at 5 ug/ml each is described in paragraph 100. The protocol:
Protein pulldown. Scg3 (5 μg/ml) was incubated with aflibercept, VEGFR-Fc or VEGFR2-Fc (5 μg/ml) in PBS solution containing 0.5% Triton X-100 and BSA (1 mg/ml) for 1 h at 4° C. Protein G beads (20 μl) were added and incubated at 4° C. for 30 min with end-over-end rotation. The beads were washed three times with PBS by centrifugation, eluted with low pH buffer (100 mM glycine, pH 2.7) and analyzed by Western blot using anti-Scg3 pAb.

For test [3] the target is unchanged. The test can be described thus: competition ELISA (excess mAb against Clone 78 scFv) and Octet RED96. How it is done: as §1
(In an ELISA, binding on a coated surface is turned into a signal by an enzyme label.)

T1 sequence (Q8WXD2 20-468 limits assumed): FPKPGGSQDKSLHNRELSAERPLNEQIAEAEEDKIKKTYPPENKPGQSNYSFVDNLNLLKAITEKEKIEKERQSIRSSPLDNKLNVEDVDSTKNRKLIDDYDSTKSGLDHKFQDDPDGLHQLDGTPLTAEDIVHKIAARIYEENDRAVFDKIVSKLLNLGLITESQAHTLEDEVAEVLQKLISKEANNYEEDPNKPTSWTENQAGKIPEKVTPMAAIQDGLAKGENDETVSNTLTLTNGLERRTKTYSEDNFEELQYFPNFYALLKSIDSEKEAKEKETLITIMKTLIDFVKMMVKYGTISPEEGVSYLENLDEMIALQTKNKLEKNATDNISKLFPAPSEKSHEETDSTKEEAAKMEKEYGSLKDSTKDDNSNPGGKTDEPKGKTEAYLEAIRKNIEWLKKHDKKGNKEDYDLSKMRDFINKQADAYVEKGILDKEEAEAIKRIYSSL

B1: anti-Scg3 mAb Clone 49 (antibody, V domains shown)
VH: EVKLEESGAELVKPGASVKLSCTASGFNIKDTYMHWVKQRPEQGLEWIGRIDPANGDTKYDPKFQGKATITADTSSNTAYLQLSSLTSEDTAVYYCARNGPGTPWFAYWGQGTLVTVSA
VL: DIQMTQSSSYLSVSLGGRVTITCKASDHINNWLTWYQQKPGNAPRLLISGATSLETGVPSRFSGSGSGKDYTLSITSLQTEDVATYYCQQYWSTPFTFGSGTKLEIKR
notes: also called Clone 49 mAb; CLONE 49 Monoclonal Antibody
Turning to B1, the binding result in test [1] is on record as “binds”.

B2: aflibercept (Fc fusion, UniProt P17948 129-230, looked up)
chain: SDTGRPFVEMYSEIPEIIHMTEGRELVIPCRVTSPNITVTLKKFPLDTLIPDGKRIIWDSRKGFIISNATYKEIGLLTCEATVNGHLYKTNYLTHRQTNTIIDVVLSPSHGIELSVGEKLVLNCTARTELNVGIDFNWEYPSSKHQHKKLVNRDLKTQSGSEMKKFLSTLTIDGVTRSDQGLYTCAASSGLMTKKNSTFVRVHEK
notes: also called EYLEA; not shown: human IgG Fc
Regarding B2, the binding result in test [2] is given as “no binding”.

B3: anti-Scg3 mAb Clone 153 (antibody, V domains shown)
VH: GRKLQESGPELLKPGASVKISCKTSGYIFSTSWMNWVKQRPGQGLEWIGRIYPGDGHTNYNGKFKDKATLTADKSSSTAYMQLSSLTSVDSAVYFCARSADGYFFVYWGQGTLVTVSA
VL: DIVLTQTPLSLPVSLGDQASISCRSSQSIVHSNGNTYLEWYLQKPGQSPKLLIFKVSKRFSGVPDRFSGSGSGTDFTLKISRVEAEDLGVYHCFQGSHVPPTFGGGTKLEIKR
notes: Monoclonal antibody
B3: the binding result in test [3] is “binds”.

B4: anti-Scg3 mAb Clone 162 (antibody, V domains shown)
VH: B3 VH with G1P, R2G, L4A, Q5E, L11M, V89A
VL: B3 VL with S28N, V30I
notes: Monoclonal antibody
Take B4: in test [3], the binding result was “binds”.

B5: anti-Scg3 mAb Clone 78 (antibody, V domains shown)
VH: B3 VH with G1E, R2V, K3Q, E6Q, T31A, F64I, Y107D
VL: B3 VL with L4M, L9V, S61Y
notes: also called Clone 78 mAb; CLONE 78 Monoclonal Antibody
With B5, the binding result in test [1] is listed as “binds”.

B6: anti-Scg3 mAb Clone 190 (antibody, V domains shown)
VH: B3 VH with G1E, R2V, Q5E, T31S, L113P
VL: B3 VL with L4M, T7S, E84G, V90I, H92Y
notes: Monoclonal antibody; also called CLONE 190 Monoclonal Antibody
Turning to B6, the binding result in test [3] is “binds”.
